# Laboratory results as given in US20240043859A1, “HERBICIDE-RESISTANT PROTEIN, AND GENE AND USE THEREOF” (QINGDAO KINGAGROOT CHEMICAL COMPOUND CO., LTD., priority 2020, published 2024).
# Test: Chromogenic reaction of degrading herbicides in bacteria: 2,4-D
# Format: cell-based, Escherichia coli
# Conditions: recombinant E. coli expressing the gene, 2,4-D added to the medium; red = phenols
# Method: To transform the plasmids to be tested, an AAD12-expressing plasmid and a blank control plasmid pET15b were respectively transformed into the protein expression E. coli BL21(DE3) strains. A monoclone was selected and inoculated in a 10 ml centrifuge tube with 3 ml LB medium, and cultivated at 37° C., 200 rpm for 6-8 hours. The culture medium was added with 0.1 mM IPTG and 2 mM α-ketoglutaric acid, and then 0.5 mM 2,4-D. The temperature was switched to 28° C. and the cultivation continued overnight. In the next morning, 200 μL of each bacteria solution was taken and centrifuged to precipitate thallus, 180 μL of the supernatant was taken and added in a 96-well plate, and 20 μL of borate buffer of pH 10 was added. Then the mixture was added with 2 μL of 8% potassium ferricyanide and mixed well, followed by adding 2 μL of 2% 4-aminoantipyrine, and placed at room temperature for 5 min to observe the color and detect the A510 value.
# The bacteria solution also appeared red when 2,4-D was directly added into the medium of AAD12-expressing bacteria, as shown in FIG. 1.
# 2,4-D was added into these bacteria solutions of AAD gene-expressing recombinant E. coli and cultivation was continued for color development.
row,Molecule,"Chromogenic reaction of degrading herbicides in bacteria: 2,4-D"
1,"QYD69: AAD-like candidate enzyme; 100.00% identical to US20170211087-0004 (protein, Synthetic polypeptide, QYD69, D69) MAQTTLQITPTGATLGATVTGVHLATLDDAGFAALHAAWLQHALLIFPGQHLSNDQQITFAKRFGAIERIGGGDIVAISNVKADGTVRQHSPAEWDDMMKVIVGNMAWHADSTYMPVMAQGAVFSAEVVPAVGGRTCFADMRAAYDALDEATRALVHQRSARHSLVYSQSKLGHVQQAGSAYIGYGMDTTATPLRPLVKVHPETGRPSLLIGRHAHAIPGMDAAESERFLEGLVDWACQAPRVHAHQWAAGDVVVWDNRCLLHRAEPWDFKLPRVMWHSRLAGRPETEGAALV",Yes
2,"QYD64: AAD-like candidate enzyme; 100.00% identical to US20180066275-0002 (protein, Synthetic polypeptide, QYD64, D64) MSLQLKPLHPVFGAEASGLDLTRPLSDADVRAVNAAMNEHAVLVFRGQPLTAQQQLDFAKHFGPLDIGLKRVFKRPERLEDERLIDISNVDAQGNIARRDSPKNLSNFANQLWHSDSSFMNPRAAYSMLHCVIKPSWGGNTEFADLRHAYDTLDERTKAEIQDLKAEHFALHTRILLGDDAYTDDQKKEIPPAVWPLADTHPGSGRKVLFVGVHAREIIGWPVAEARMYLSDLLEHATRRENVYVHEWTPGDLVIWDNRSTLHRGRRYDITERRELRRTTINDTPEAMLMAA",Yes
3,"QYD60: AAD-like candidate enzyme; 100.00% identical to US20160002662-0002 (protein, Synthetic polypeptide, QYD60, D60) MSPAFDIAPLDATFGAVVTGVKLADLDDAGWLDLQAAWLEYALLVFPDQHLTREQQIAFARRFGPLEFEMAAISNVRPDGSLRVESDNDDMMKILKGNMGWHADSTYMPVQAKGAVFSAEVVPSVGGQTGFADMRAAYDALDEDLKARVETLQARHSLHYSQSKLGHQTKAADGEYSGYGLHDGPVPLRPLVKIHPETGRKSLLIGRHAHAIPGLEPAESERLLQQLIDFACQPPRIYHHDWAPGDAVLWDNRCLLHQATPWDMTQKRIMWHSRIAGDPASETALAH",Yes
4,"QYD68: AAD-like candidate enzyme; 100.00% identical to JP2018506305-0002 (protein, Synthetic polypeptide, QYD68, D68) MSPAFDIAPLDATFGAVVTGVKLADLDDAGWLDLQAAWLQHALLIFPGQHLSNDQQITFAKRFGAIERIGGGDIVAISNVKADGTVRQHSPAEWDDMMKVIVGNMAWHADSTYMPVMAQGAVFSAEVVPAVGGRTCFADMRAAYDALDEATRALVHQRSARHSLVYSQSKLGHVQQAGSAYIGYGMDTTATPLRPLVKVHPETGRPSLLIGRHAHAIPGMDAAESERFLEGLVDWACQAPRVHAHQWAAGDVVVWDNRCLLHRAEPWDFKLPRVMWHSRLAGRPETEGAALV",Yes
5,"QYD67: AAD-like candidate enzyme; 100.00% identical to US20180244732-0002 (protein, Synthetic polypeptide, QYD67, D67) MSPAFDIAPLDATFGAVVTGVHLATLDDAGFAALHAAWLQHALLIFPGQHLSNDQQITFAKRFGAIERIGGGDIVAISNVKADGTVRQHSPAEWDDMMKVIVGNMAWHADSTYMPVMAQGAVFSAEVVPAVGGRTCFADMRAAYDALDEATRALVHQRSARHSLVYSQSKLGHVQQAGSAYIGYGMDTTATPLRPLVKVHPETGRPSLLIGRHAHAIPGMDAAESERFLEGLVDWACQAPRVHAHQWAAGDVVVWDNRCLLHRAEPWDFKLPRVMWHSRIAGDPASETALAH",Yes
6,"QYD70: AAD-like candidate enzyme; 100.00% identical to US20190017066-0048 (protein, Synthetic polypeptide, QYD70, D70) MHAALTPLTNKYRHIDVQPLTGVLGAEITGVDLREPLDDSTWNEILDAFHTYQVIYFPGQAITNEQHIAFSRRFGPVDPVPILKSIEGYPEVQMIRREANESSRYIGDDWHADSTFLDAPPAAVVMRAIEVPEYGGDTGFLSMYSAWETLSPTMQATIEGLNVVHSATKVFGSLYQATNWRFSGTSVKVMDVDAGDRETVHPLVVTHPVTGRRALYCNQVYCQKIQGMTDAESKSLLQFLYEHATQFDFTCRVRWKKDQVLVWDNLCTMHRAVPDYAGKFRYLTRTTVAGDKPSR",Yes
7,"QYD65: AAD-like candidate enzyme; 100.00% identical to CN103013939-0002 (protein, Synthetic polypeptide, QYD65, D65) MAIAIRQLHPHFVGEVSGVDLRHPLTRDEVAELQAAIDHYAVLVFHDQDIGDEQQLAFALNFGDREKARGGTVTKKEDYRLTTGLNDVSNLGKDGKPLPPDHRTHLFNLGNCLWHSDSSFRPIPAKYSILSARIVNPKGGNTEFADMRAAYDALDEQTKAEIDDLVSEHSLMYSRGSLGFLDYTDEEKKMFKPVRQRLVRTHPAHGRKSLYLSSHAGAVVGMSMPEGRLLLRDLTEHATQPEFVYVHKWRLHDLVMWDNRQTVHRVRRYDQSQPRDMRRATVAGTEPTVAQQAAE",Yes
8,"QYD63: AAD-like candidate enzyme; 100.00% identical to US20140179534-0002 (protein, Synthetic polypeptide, QYD63, D63) MSSLELTPLHPLFAAEARGIDIRQPLSPSEVKQINAAMNRYAVLVWRGQPLTGQQQIDFAKAFGPLDLGLKKVFKRPERLEDERLIDISNVDAEGKVARRDSPKNLSNFANQLWHSDSSFQNPRAAYSMLHALVLPSWGGNTEFAELRAAYDALPERTRSEIEGLRAEHYALHTRILLGDEAYTDDQKKAIPPAVWPLAQTHPGSGRKLLFVGVHAREIIGWPVAEGRMFLSDLLEHATRREFVYTHEWQVGDLVMWDNRSTLHRGRRYDIGERRELRRTTIEDVPEATLMAA",Yes
9,"QYD71: AAD-like candidate enzyme; 100.00% identical to CN109456986-0002 (protein, Synthetic polypeptide, QYD71, D71) MPFQVNQLHPIFAAEMFGCDILKPVTDETRNAVEDAMAKYAVLVIRDQAAASDEDQVRFAKAFGPLELPPDLGMSERTRPTRVHPKLYDVSNLDENGNLDKPDTLRRKFAKGNELFHTDSSFNDLPTKWSMLLAHVVTPTGGNTEFVDTRAAYDALSPSMKEQVEPLSVIHSLTYSRERGGLTGTTVFDRAFPPVTQPLVRTSASGRKALYIGAHAATVVGMDEAAGRTLLDKLISDASRPEYIYSHKWLPGDLVIWDNRCTMHRATEYAYMEDRRDLRRATINEFGEDRVGARPI",Yes
10,"QYD66: AAD-like candidate enzyme; 100.00% identical to US20140194292-0002 (protein, Synthetic polypeptide, QYD66, D66) MERHAMSNGKQIVRIEPLPGKTFGAVVTGVRLSELDEDTFSLLYREWLQYALLIFPAQYLTDSQQRDAASKFGCLVEGLEAVEISNLLPTGEVRAAPDDDMMKIIRGNMQWHQDNTYMPLQAKGALFSAKRVPSSGGETGFADMRAAWDALDTETQDRLANLSAYHSLAQSQKNLGEDVKSSDSEYIGYGLDVSTVPRRSLLKIHPETDRKTLAVGRHAFGVTGMAEQESTQFVSDLIDFAVADESRTYHHIWSEGDAILWDNRCLMHRACPWNFSQPRVMLHSRIAGDPSTEAALNS",Yes
11,"QYD61: AAD-like candidate enzyme; 100.00% identical to US20190024109-0292 (protein, Synthetic polypeptide, QYD61, D61) MSVVANPLHPLFAAGVEDIDLREALGSTEVREIERLMDEKSVLVFRGQPLSQDQQIAFARNFGPLEGGFIKVNQRPSRFKYAELADISNVSLDGKVAQRDAREVVGNFANQLWHSDSSFQQPAARYSMLSAVVVPPSGGDTEFCDMRAAYDALPRDLQSELEGLRAEHYALNSRFLLGDTDYSEAQRNAMPPVNWPLVRTHAGSGRKFLFIGAHASHVEGLPVAEGRMLLAELLEHATQREFVYRHRWNVGDLVMWDNRCVLHRGRRYDISARRELRRATTLDDAVV",Yes
